T1: biotinylated CRH (human and mouse, UniProt P01143 145-185 (rat entry), not fully specified; biotin; which end is not stated for the result (NT-biotin and CT-biotin forms were used))
T1 construct: also called biotin-CRH; CRH (NT biotin)
T1 peptide: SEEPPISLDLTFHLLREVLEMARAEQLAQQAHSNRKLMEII

B1: PR006144 (antibody, human IgG1, kappa, V domains shown)
VH: EVQLVESGGVLVQPGGSLRLSCAASGFTFSSYWMTWVRQAPGKGLEWVANIKQEGSEKYYVDSVKGRFTISRDNAKNSLFLQMNSLRAEDTAVYYCARTLIFDYWGQGTLVTVSS
VL: DIVMTQSPLSLPVTPGEPASISCRSSQSLLHSTGYNPLEWYLQKPGQSPQLLIYLGSNRASGVPDRFSGSGSGTDFTLKISRVEAEDVGIYYCMQTLQTPITFGQGTRLEIKR
B2: PR006149 (antibody, human IgG1, kappa, V domains shown)
VH: EVQLVESGGVLVQPGGSLRLSCAASGFTFSSYWMTWVRQAPGKGLEWVANIKQDASEKYYVDSVKGRFTISRDNAKNSLFLQMNSLRAEDTAVYYCARTLIFDYWGQGTLVTVSS
VL: DIVMTQSPLSLPVTPGEPASISCRSSQSLLHSTGYSSLEWYLQKPGQSPQLLIYLGSNRASGVPDRFSGSGSGTDFTLKISRVEAEDVGIYYCMQTLQTPITFGQGTRLEIKR
B3: PR006152 (antibody, human IgG1, kappa, V domains shown)
VH: EVQLVESGGVLVQPGGSLRLSCAASGFTFSSYWMTWVRQAPGKGLEWVANIKQDSSEKYYVDSVKGRFTISRDNAKNSLFLQMNSLRAEDTAVYYCARTLIFDYWGQGTLVTVSS
VL: DIVMTQSPLSLPVTPGEPASISCRSSQSLLHSTGYNPLEWYLQKPGQSPQLLIYLGSNRASGVPDRFSGSGSGTDFTLKISRVEAEDVGIYYCMQTLQTPITFGQGTRLEIKR
B4: PR006148 (antibody, human IgG1, kappa, V domains shown)
VH: EVQLVESGGVLVQPGGSLRLSCAASGFTFSSYWMTWVRQAPGKGLEWVANIKQDASEKYYVDSVKGRFTISRDNAKNSLFLQMNSLRAEDTAVYYCARTLIFDYWGQGTLVTVSS
VL: DIVMTQSPLSLPVTPGEPASISCRSSQSLLHSTGYNPLEWYLQKPGQSPQLLIYLGSNRASGVPDRFSGSGSGTDFTLKISRVEAEDVGIYYCMQTLQTPITFGQGTRLEIKR
B5: PR006150 (antibody, human IgG1, kappa, V domains shown)
VH: EVQLVESGGVLVQPGGSLRLSCAASGFTFSSYWMTWVRQAPGKGLEWVANIKQDSSEKYYVDSVKGRFTISRDNAKNSLFLQMNSLRAEDTAVYYCARTLIFDYWGQGTLVTVSS
VL: DIVMTQSPLSLPVTPGEPASISCRSSQSLLHSTGYDSLEWYLQKPGQSPQLLIYLGSNRASGVPDRFSGSGSGTDFTLKISRVEAEDVGIYYCMQTLQTPITFGQGTRLEIKR
B6: PR006153 (antibody, human IgG1, kappa, V domains shown)
VH: EVQLVESGGVLVQPGGSLRLSCAASGFTFSSYWMTWVRQAPGKGLEWVANIKQDSSEKYYVDSVKGRFTISRDNAKNSLFLQMNSLRAEDTAVYYCARTLIFDYWGQGTLVTVSS
VL: DIVMTQSPLSLPVTPGEPASISCRSSQSLLHSTGYSSLEWYLQKPGQSPQLLIYLGSNRASGVPDRFSGSGSGTDFTLKISRVEAEDVGIYYCMQTLQTPITFGQGTRLEIKR
B7: PR006146 (antibody, human IgG1, kappa, V domains shown)
VH: EVQLVESGGVLVQPGGSLRLSCAASGFTFSSYWMTWVRQAPGKGLEWVANIKQDASEKYYVDSVKGRFTISRDNAKNSLFLQMNSLRAEDTAVYYCARTLIFDYWGQGTLVTVSS
VL: DIVMTQSPLSLPVTPGEPASISCRSSQSLLHSTGYDSLEWYLQKPGQSPQLLIYLGSNRASGVPDRFSGSGSGTDFTLKISRVEAEDVGIYYCMQTLQTPITFGQGTRLEIKR
B8: PR006147 (antibody, human IgG1, kappa, V domains shown)
VH: EVQLVESGGVLVQPGGSLRLSCAASGFTFSSYWMTWVRQAPGKGLEWVANIKQDASEKYYVDSVKGRFTISRDNAKNSLFLQMNSLRAEDTAVYYCARTLIFDYWGQGTLVTVSS
VL: DIVMTQSPLSLPVTPGEPASISCRSSQSLLHSTGYHSLEWYLQKPGQSPQLLIYLGSNRASGVPDRFSGSGSGTDFTLKISRVEAEDVGIYYCMQTLQTPITFGQGTRLEIKR
B9: PR006151 (antibody, human IgG1, kappa, V domains shown)
VH: EVQLVESGGVLVQPGGSLRLSCAASGFTFSSYWMTWVRQAPGKGLEWVANIKQDSSEKYYVDSVKGRFTISRDNAKNSLFLQMNSLRAEDTAVYYCARTLIFDYWGQGTLVTVSS
VL: DIVMTQSPLSLPVTPGEPASISCRSSQSLLHSTGYHSLEWYLQKPGQSPQLLIYLGSNRASGVPDRFSGSGSGTDFTLKISRVEAEDVGIYYCMQTLQTPITFGQGTRLEIKR
B10: PR302333 (antibody, human IgG1, kappa, V domains shown)
VH: QIQLVQSGPELKKPGETVKISCKASGYTFTNFGMNWVKQAPGKVLKWMGWINTYTGEPIYADDFKGRFAFSLETSASAAYLQINNLKNEDTATYFCSRSTMITTGGVFAYWGQGTLVTVSA
VL: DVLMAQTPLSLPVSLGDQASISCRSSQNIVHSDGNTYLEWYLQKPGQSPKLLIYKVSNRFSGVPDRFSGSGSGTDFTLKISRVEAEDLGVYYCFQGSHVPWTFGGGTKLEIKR
B11: PR302332 (antibody, human IgG1, kappa, V domains shown)
VH: QIQLVQSGPELKKPGETVKISCKASGYTFTNFGMHWVKQAPGKVLKWMGWINTYTGEPIYAADFKGRFAFSLETSASTAYLQINNLKNEDTATYFCSRSTMITTGGVFAYWGQGTLVTVSA
VL: DVLMAQTPLSLPVSLGDQASISCRSSQSIVHSDGNTYLEWYLQKPGQSPKLLIYKVSNRFSGVPDRFSGSGSGTDFTLKISRVEAEDLGVYYCFQGSHVPWTFGGGTKLEIKR
B12: PR302328 (antibody, human IgG1, kappa, V domains shown)
VH: EVKLVESGGGLVKPGGSLKLSCAASGFTFSSYAMSWVRQTPEKRLEWVASIRSGGTTYYPDSVKGRFTISRDNARNILYLQMSSLRSEDTAIYYCTRGIDWGQGTLVTVSA
VL: NIVMTQTPKFLLVSAGDRVTITCKASQSVNNDVAWYQQKPGQSPKLLIYYASNRYTGVPDRFTGSGYGTDFTFTISTVQAEDLAVYFCQQDYSSWTFGGGTKLEIKR
B13: PR302339 (antibody, human IgG1, kappa, V domains shown)
VH: EVKLVESGGGLVKPGGSLKLSCAASGFTFSSYALSWVRQTPEKRLEWVASIRSGGTTYYPDSVKGRFTISRDNARNILYLQMSSLRSEDTAIYYCTRGIDWGQGTLVTVSA
VL: NIVMTQTPKFLLVSAGDRVTITCKASQSVNNDVAWYQQKPGQSPKLLIYYASNRYTGVPDRFTGSGYGTDFTFTISTVQAEDLAVYFCQQDYSSWTFGGGTKLEIKR
B14: PR302331 (antibody, human IgG1, kappa, V domains shown)
VH: EVKLVESGGGLVKPGGSLKLSCAASGFTFSSYAMSWVRQSPEKRLEWVASIRSGGTTYYPDSVKGRFTISRDNARNILYLQMSSLRSEDTAIYYCTRGIDWGQGTLVTVSA
VL: NIVMTQTPKFLLVSAGDRVTIACKASQSVNNDVAWYQQKPGQSPKLLIYYASNRYTGVPDRFTGSGYGTDFTFTISTVQAEDLAVYFCQQDYSSWTFGGGTKLEIKR
B15: PR302324 (antibody, human IgG1, kappa, V domains shown)
VH: EVQLQQSGPELVKPGASVKMSCKASGYTFTDYFMKWVKQSHGGSLEWIGVISPNNGDTFYNQKFKGKATLTVDKSSSTAFMQLNSLTSEDSAVYSCARGTDRALFAYWGQGTLVTVSA
VL: DVLMTQTPLSLPVSLGDQASISCRSSQSIVHSDGNTYLEWYLQRPGQSPKLLIYKVSNRFSGVPDRFSGSGSGTDFTLKISRVGAEDLGVYYCFQGSHIPWTFGGGTKLEVKR
B16: PR302312 (antibody, human IgG1, kappa, V domains shown)
VH: EVQLQQSGPELVKPGASVKMSCKASGYTFTDYFMKWMKQSHGKSLEWIGVINPNNGDTFYNQNFKGKATLTVDKSSSTAYMQLNSLTSEDSAVYYCTRGTARALFAYWGQGTLVTVSA
VL: DVLMTQTPLSLPVSLGDQASISCRSSQSIVHSDGNTYLEWYLQRPGQSPKLLIYKVSNRFSGVPDRFSGSGSGTDFTLKISRVGAEDLGVYYCFQGSHVPWTFGGGTKLEVKR

Molecular target: T1, biotinylated CRH
Test: ELISA, CRH (NT biotin)
Method: Streptavidin (Thermo, Cat: 21125) was diluted in PBS to a concentration of 2 μg/ml. 100 μl of diluted streptavidin was added per well to ELISA microplates, and the plates were incubated overnight at 4° C. […] Subsequently, plates were washed and incubated with HRP-conjugated goat anti-human IgG (H+L) antibody (Jackson, Cat: 109-035-088) at 37° C. for 1 hour. 100 μL of 3,3′,5,5′-tetramethylbenzidine (TMB) substrate (Biopanda, Cat: TMB-S-003) was added, and the plates were incubated at room temperature for 15 minutes. 100 μL of ELISA stopping solution (Solarbio, Cat #: C1058) was added to terminate the reaction, and the optical density at 450 nm (OD450 nm) was determined by an ELISA plate reader (Molecular Devices, Spectra max 384 plus).
These potential PTMs were mutated individually either in HCDR2 alone, in LCDR1 alone, or in various combinations of mutations, as detailed in Table 3. […] Most ΔPTM variants retained functional activities.

Binding result, binds:
B1, B2, B3, B4, B5, B6, B7, B8, B9

Molecular target: T1, biotinylated CRH
Test: ELISA, CRH (NT biotin)
Remark: another data set of the same source

Binding result, binds:
B10, B11, B12, B13, B14, B15, B16

— patent publication US20250197490A1 (HBM ALPHA THERAPEUTICS, published 2025)
